Measured values: a protein production outcome set (Wang et al. 2014)

Test: label from the status in PepcDB records

Sequence | protein production
MLIVGLNGSPKKDGNTAFLVREGLAAAAAAGAETALIHIADAMADQKIPYCTQCSNPCQGACSRHNRLGEAFDLLRRADGLLLGSPVYFGSVSAQLKAFWDKSRILRKEKALLNVVGAGVTVGGARFGGQETTMKALFDMMLVQGMILVGDGHTEADCGHQGSCGQAPASSDEFAIRRVRLAGRRLAEVAAATMTLRRHRA | failed
MLIVNREEYSKSDFDLRLQAYEEMEQFQEAAGNRFALCLKDPFDIITLVFFLKEKKSSVLLIHEDTPKETAIEMAKRANCIGILYGENSDFTKLEAVNYLAEEPSLLQYSSGTTGEPKLIRRAWTEVDTEIKVYNEALNCDIDEVPIVMAPVSHSYGLICGTLSAITRGSKPIIITNKNPKFALNIVRNTEKHIVYAVPLMLHIMGSFPQGTFQFHKIMTSGAPLPEALFYKLKETTTYMMQQYGCSEAGCISICHDMKSHLDLGNPLPHASISIGSDENAPEEIIVKMNDKEIFTKDLGYKSERGLHFMGRMDDVINVSGLKVFPIEVEETMLRLEGVQEAIVYRGKHPVMGEIVKAKVISHIDPVQIREWCMQHLPSYKVPHEIESVTEIPKNKTGKVSRKLLEMGEVTT | failed
MLKDQANQLEFPRDFLGISLADQPNKYYFIIRTQRIVLEADSSIQLIMEKLQSYKSKVALYFDGFQYQLGDFRLRVGKVVPTHSENVRGIVMEVEYLPISSMEKAQKVMEEFLEIWNEALAKRSLPGKFVNIDLNFGEFGLGDIYTPQHTAVRYALVMAHMIATVQAVRG | failed
MLKIKILIIIFCCIGVVKAQTVIPPSSETPPGWIYYDGDEFNGDVIDSRYWGIYGSPKVGRPTYNQENKAMLQTYRPEQVFIETLPTGEKICRIRSFKSKDAPSPVHPSVKSKTGWWSGALSSRDSDTEKYYPLFCRIEIKAKVPYLYGLWNALWLRHYKGAGVAEIDILEFFTKAFGENPYPAKANQTLHLFNSETQKLGINLPKGQIRYTEIGDDKPGDNFHVYAVQIDPDPVDNNHAIITFLIDNKVNYQIHTRTQLGDAYTDFITKARKEDRLDRVWDIAITGQVGAFDKLDVGYPAEELQQFDFDIDWIRVYVRDPHTRIVGNSKLPHTPEADSFVKDLLSRMTVEEKIGQLSQYVGRTLLTGPESEYLSDSLIARGLVGSVLNISGAKTLRDLQEKNMRHSRIKIPILFGMDVIHGYKTIFPTPLAESCSWDLAAIERAAKIAAIESSAAGLHWTFAPMVDIARDARWGRVVEGAGEDTYLGSEIAKARVNGFQWNLWENNSVLACAKHWVAYGLPQAGRDYAPVDMSERTLFDTYLPPFKACIDAGVLTFMSAFNDINGIPASAHPFLLKDLLRGQWNFNGFVVSDWEAVKQLVAQGVAEDDKDATRLAFNSGIDMDMTDGLYNKYMKELIEAGKISMEDVDNSVSRILHIKYALGLFVDPYKFCNEEYESQTIMKKEFLDAALDMAHKSAVLLKNDNHTLPLAKNVRSIAVVGPLADNQTELLGSWRARGEDRHVTTVLQGIKNKIGGNKTKVGYARGCDFDGEDKSGFKEAVKLASKSDMVIAVVGEKALMSGESRSRAQLDLPGVQEELIKELVATGKPVVVVLMNGRPLSIEWVDKNVSAILETWFLGTSAGTAIADILFGDYNPSGRLTISFPRVEGQVPIYYNYKKSGRPGDMLHSSTTRHIDVPNAPLYPFGYGLSYTTFSYSAPQSTQKEYTRQETISVSVTVTNTGDRDGEETVQLYVNDKVASVVRPVKELKAFKKIFLKAGESKTVQFDISPLALGFYDAAMNYVVEPGEFEIMTGCNSNDLQTISVKLIN | failed
MLKKGNEMKAVIVYASVHHGNTKKIEEAMASVISADVIDVTRKIKPDLSGYDVIGFVSGVYFHTFHEGIKKCIEENMSSKGQKVFLVATCGLGYRDYTKGMKDTLAKKDVLCMGSFQCRGWDTYGIFGKIGGIAKKHPNDRDLKEAQEFVLKTVCKTNLEHHHHHH | not failed
MLKLGVIGTGAISHHFIEAAHTSGEYQLVAIYSRKLETAATFASRYQNIQLFDQLEVFFKSSFDLVYIASPNSLHFAQAKAALSAGKHVILEKPAVSQPQEWFDLIQTAEKNNCFIFEAARNYHEKAFTTIKNFLADKQVLGADFNYAKYSSKMPDLLAGQTPNVFSDRFAGGALMDLGIYPLYAAVRLFGKANDATYHAQQLDNSIDLNGDGILFYPDYQVHIKAGKNITSNLPCEIYTTDGTLTLNTIEHIRSAIFTDHQGNQVQLPIQQAPHTMTEEVAAFAHMIQQPDLNLYQTWLYDAGSVHELLYTMRQTAGIRFEAEK | not failed
MLKLTPLLLAIAYGFLMYQFSVWRTKRMLDAQSRPLDEPEILALARRMAAALDLPTVKVSVFEVDPVNGLAAPDGRIFLTRGFLKKYRAGEVTAEELASVIAHELGHVALGHSRRRMIDFTGQNAVLMMLGAVLNRFVPFAGIWIARLLTSALSARLSRRDEHEADAYASALLVKAGIGTEPQKSLFRKLHRWSGMNSSAVPAWLMSHPVTDERIRRIEEREARWIEGLEHHHHHH | failed
MLKNIDPALNADVLHALRAMGHGDTLVISDTNFPSDSVARQTTVGKVLHIDNVSAARAMKAILSVLPLDTPLQPSVGRMEVMGAPDQLEPVQVEVQQEIDAAEGKSAPMYGIERFAFYEKAKQAYCVITTGETRFYGCFLLTKGVIPPK | not failed
MLKNLRIRKFEPEEEYVYFTYSIKNDKREKSKELIREYTTLLQKAIDYLWNLTKIQVRKKNGNYKITLPKKREVYKPLREELEKINHLASHYVDKAINDAFSILKSWRKRAIKGRASIEKPRVKKAYVRIKTTLRKVVGESVRITVRPHEYITFSWSKSWFSRRVRELELGEPIIKEEKVYLPFRYKLPWATPVDFLAIDSNLYTLDAYDGEKFVTISLKQLYSLKYSMEVKRAKVQSFASKHTKRGRELMRKYSHRERNRVLDFVHKFVNTLLDLYPMTFFAVEKLNKESMFKDANDSLSRKISRTVWGSIHRVLKYKAPLYGSFVKEVNPRFTSRSCPRCGFVSRKVGKTFECERCGFKLDRQLNASLNIYLKMCGFPHIREIARVWVGVIPLMGRRGMNGFPRDFGEAQGLRIDIEYHEIPLEHHHHHH | not failed
MLKPTHFVVAARVTLVLGGLAVAVLALGPFQGAERIVGLNDKAAHAIAFGGLLAVSFLAFPRMRRNDLAIAALVLGAGVEVAQLFGGRSASLLDWLADAAGVLTIYGASMIETVRKMAREQGDMTFAEIAATDRRRARRRAPAVFTPLVETPQTEHAPPLSFAQRAARRFPVS | failed
MLKQPIQAQQLIELLKVHYGIDIHTAQFIQGGADTNAFAYQADSESKSYFIKLKYGYHDEINLSIIRLLHDSGIKEIIFPIHTLEAKLFQQLKHFKIIAYPFIHAPNGFTQNLTGKQWKQLGKVLRQIHETSVPISIQQQLRKEIYSPKWREIVRSFYNQIEFDNSDDKLTAAFKSFFNQNSAAIHRLVDTSEKLSKKIQPDLDKYVLCHSDIHAGNVLVGNEESIYIIDWDEPMLAPKERDLMFIGGGVGNVWNKPHEIQYFYEGYGEINVDKTILSYYRHERIVEDIAVYGQDLLSRNQNNQSRLESFKYFKEMFDPNNVVEIAFATEQ | failed
MLKRIFTVGGFTLLSRLTGFARDIMLAAILGAGPVADAFFVALRLPNHFRAIFAEGAFNAAFVPAYAHVHGEKGEASAKLFADRIFTLLFLSQLVLLAVALAFMPQMMSILAPGFTDDPEQRALAIELTRITFPYLLLITLVTLYGGILNVMQRFASAAAASIFLNISMMATLALAAFFPSAGHAAAWGVLISGVLQYFLLAGDLSLHGGLPRFARPKLDEDVRAFFRALGPATLGSMGTQLALFADTIIATFLPAGALSALYYADRLNQLPIGVIGIAIGTVLLPEMSRQLTAGDDAGAKASQRRAFEFTLLFSVPFVAAFLTVPDEIMRAMFARGAFTRADAISAGTTLAAYAIALIPFVLIRSAVAPFYARKDTATPVKAALTGVATNVVLKFALMGSLAQVGLALATAAGAWINLLLVIFFSVRAGYLEFDRELVRAILKFGIIGVLLGAALWLTAWLAPPYLALLPALRSEAALALLILVGAVIYGAAILILFGPRWIKRLLRG | failed
MLKRKLILIAYTLLGLSSPVFSADYITENLSTYMRKGAGDQYKISGAVQAGEKVTVLDRKDRFVLIRDSRNREGWVLASEISQTASPKDLIPQLQQQVQDLSSKLGKIDADWQQRTLEMQRRSQQAEQQSSQLLDQNAQLKRELDILKNKNRDLETMHDSAKREIVIQWFIYGGSVLAVGLLLGLIIPFILPRRKRHNGWS | failed
MLKRLWQIFGPVICALVLVVVVIYAYPQGRKYSYEAEKRSAVTLTNENFKSRKNKTTALSDQNHRFVPYFGSSEWLRFDALHPAVLAEKYDRNYRPYFIGQRGSASLNQYLGMQQMLPELQNGTAVYVLSPQWFTKKGYNSAAFQQFFNNDQLSSFLSQNQTDANSQYAAKRILEMKPEITMKSQLSKVAKGQDLNTVDKTYIQFMAELNRREDSLFSPLAASNNANYDKKVLPYLKELPDQFSYDALDQLAVRDAEAHTKSNDFGIDDRFYKERLSKKIGKLKGFQKNLSYEVSQEYGDLQLVLNQFAKSNTNVIFVIPPVNSKWMAYTGLNQDMYDATVSKIRYQLESQGFTNIADFSKDGDQPYFMQDTIHMGWKGWVAFDRVVNSFVSNPTPAPSYKLNDRFYSKDWSGYTGTPSQFKLEHHHHHH | not failed
MLKSCPMNPRLDALHPYPFEKLRALLADAGKPTHDLPPINLSIGEPKHAAPACVGQAIAANLAGLSVYPSTKGEPALRQAISQWLSRRYSIPAPDPESEVLPVLGSREALFAFAQTVIDPSAGALVVCPNPFYQIYEGAALLAGATPYYVNADPARDFGCDWARVPDEVWRRTQLVFVCSPGNPAGNVMSLEEWRTLFELSDRHGFVIAADECYSEIYLDEDNPPLGSLQAARRLGRDRYTNLVAFSSLSKRSNVPGMRSGFVAGDAALLARFLLYRTYHGSAMSPVVSAASIAAWSDETHVQENRRQYRAKFEAVLPILQNVLDVRAPQASFYLWAGTPGSDTAFARELYGRTGVTVLPGSLLAREAHNANPGQGRIRIALVAPLDQCVQAAERIAHFARTSI | failed
MLKSEDADYEKAMKDKVGTGPQEYLKQLSDSLVKNQSAASVEVVSGATHSSDAFINYANQLIQAAQKADTTTISINNLAKMEDGTYKLEEQNYAHGYRVVFSMDVKDGKITKSDYNYVDKDGKLKSDDADYEKNMKAKSGTGPKEYIPALNKSLVEKQDVAAVDTVSGATNSSNQFKIYAAQLQNAAQNGNTDTIKVYNLVEAELEHHHHHH | failed
MLKTVRIIILGAMCTILSAAGFDPPQPAAAKSQADEYEYPFQDPSLPVQKRVSDLLSRLTLEEKVSLMHQYQPAVPRLGIPAFKTGTEALHGVAWLGEATVFPQAFGLAHTWDRYLIKQIGSAVGDEVRGFHHLDPAANGVNVWAPVVDLLRDPRWGRNEEGYSEDPFLTGEIATAYASGLRGDHPFYLKTVPTLKHFLAYNNETDRGFSSSSIDPRNMHEYYLKPFETAISKKAAYGLMPAYNSVNDKPAILSPLLDSTVKRRWAGDDFFIVSDAFDPSGIVNDHKYYDSHEKAHAHAVKAGIDNFTDQGENPELTRNALTGALKQGLISEKDLDQALANTFSIRFRTGEFDPDELNPYSRLTDDVINSPKHQLLAKKAAEKAIVLLKNDQDLLPFNARKNESIAVIGPFGNALYEDWYSGTMPYRKTPLDEIADKIGKDRVSFAEGLEQSGFKSALTGKFVTAGRDGKQPLTAAADKLEKSAAFDAADWGESIFTLRAQANGLYVSLQDDGRLIADQKQPNGRTVKETFQFEQQSDGTFAIKNTANGKYLTAGKDGTLTAAAEKPATAAEKFSKTIIKSGTDEAVQLAKSADKAIVFVGNNPYINGRETEDRKDITLPPAQENLLKAVSKANTNTVLVVTSSYPFALNWAKAHIPAIIYSAHGGQEAGSALADILYGDVNPGGRLTQTWHTSVKELPDMMNYDIIKGKRTYKYFVGKPLFPFGHGLSYTAFRYSDLSLSSDSIKKDGSVTIRVNVTNTGGRKGDEVVQLYTSPLFKTRVKQPNLDLKDFQRVELAPKETKTVTFKLKQTDLAFWDVTRETFAVERGPYRISVGSSAADIRKTKRIFVQGETIRERNLRRKTNAEDYDDYKGVLITEESKYGGDAVKSSTTNAWIAYHDVRFKGEKRIEAKVASSGAGEIGIFLDHPQKGKQIGSLKVPDTSGLQNWKTVKASVRKSTGTHRVFFVFKGKVAIDSFQFER | failed
